Measured values from patent publication US10568344B2, “Methods of improving animal performance” (Novozymes A/S, priority 2015, dated 2020).
Read-outs that look alike come from different tables or passages of the source. Marks after values point to notes of the source that are not given here.

Columns and labels:
[1] = In vivo broiler trial 3, growth performance; design: species or system male broiler chickens; Motality: unit not given here
Procedure: The in vivo trial was carried out as described in example 7, except the feed was supplemented with the GH25 lysozyme (SEQ ID NO: 1) at 12.5 or 25 mg per kg feed, the GH24 lysozyme (SEQ ID NO: 4) at 12.5 or 25 mg per kg feed or with Avilamycin at an inclusion level of 10 mg/kg. No additional enzymes (e.g. phytase) were added to the feed. The experimental diets (Starter, Grower and Finisher) were based on soybean meal, wheat and rye (12%) as main ingredients (Table 8). The diets were formulated to contain 225 g crude protein and 12.5 MJ/kg MEN for the starter period, 215 g crude protein and 12.8 MJ/kg MEN for the grower period and 205 g crude protein and 13.0 MJ/kg MEN for the finisher period.

[2] = system: Exiguobacterium undae (DSM14481); experiment: Lysozyme activity turbidity assay (optical density drop); type: biochemical; conditions: pH 6
[3] = system: Micrococcus lysodeikticus ATTC No. 4698; experiment: as above; conditions: pH 6
[4] = system: Clostridium perfringens DSM756; type: cell-based; conditions: for Diameter of clearing zone: lysozymes 100 μg/ml, bacitracin 50 μg/ml
[5] = In vivo piglet trial, growth performance; design: species or system weaned piglets
Procedure: The trial was performed from Oct. 23 to Dec. 4, 2014 at the Research Center for Animal Nutrition (DSM Nutritional Products France, F-68305 Village-Neuf) according to the official French guidelines for experiments with live animals. One hundred and four castrated male crossbred (Large-White (female)×Redon (male)) weaned piglets having 28 days of age supplied by the commercial farm “[…] du Rhin” located in Balgau (France), were used in a 42-day experiment. The initial bodyweight of the piglets was 7.88±0.675 kg. They were sorted by body weight into 32 groups of 3 or 4 piglets and randomly allotted to each dietary treatment. Each group of animals was placed in one flat-deck cages and allocated to one of the different treatments. Each treatment was replicated with 8 cages using a total of 26 animals (6 cages of 3 animals/treatment and 2 cages of 4 animals/treatment) per treatment. […] Animals were housed in an environmentally controlled room. Room temperature was initially 27° C. and was lowered weekly by about 2° C. until 21-22° C. and relative humidity percentage was 50%. The experimental diets (Pre-Starter and Starter) were fed ad libitum in two feeding phases from day 0 to 14 (phase 1, Pre-starter) and day 14 to 42 (phase 2, Starter). The ingredient composition and the calculated nutrient levels of the experimental diets for phases 1 and 2 are presented in table 11. Both diets were formulated to meet the animals' requirements according NRC (2012) and were fed in pelleted form. Pelleting conditions were at 70° C. for 30 seconds. […] No additional enzymes (e.g. phytase) were added to the feed. […] Appropriate amount of the liquid preparations of lysozyme was diluted in water and sprayed onto the respective pelleted feed to get the final concentrations in the feed corresponding to the different treatments. For procedural balance of all treatments the same volume of water were also sprayed onto the pellets of the control diets. Body weight of the individual animals and feed consumption per pen were recorded on days 14 and 42 of the study. […] The experimental unit was the piglet, except for ADFI and FCR which were measured by cage, and in both cases, treatment was used as class variable. One-factorial ANOVA and Student-Newman-Keuls test was used to assess differences among means in treatment groups.

[6] = Finisher (d 36-42), 12.5 mg/kg feed
[7] = Finisher (d 36-42), 25 mg/kg feed
[8] = Grower (d 22-36), 12.5 mg/kg feed
[9] = Grower (d 22-36), 25 mg/kg feed
[10] = Starter (d 1-22), 12.5 mg/kg feed
[11] = Starter (d 1-22), 25 mg/kg feed
[12] = Whole period (d 1-42), 12.5 mg/kg feed
[13] = Whole period (d 1-42), 25 mg/kg feed

B1: SEQ ID NO: 4: mature amino acid sequence of a wild type GH24 lysozyme from Trichophaea saccata (protein, listed as Trichophaea saccata)
chain: YPVKTDLHCRSSPSTSASIVRTYSSGTEVQIQCQTTGTSVQGSNVWDKTQHGCYVADYYVKTGHSGIFTTKCGSSSGGGSCKPPPINAATVALIKEFEGFVPKPAPDPIGLPTVGYGHLCKTKGCKEVPYSFPLTQETATKLLQSDIKTFTSCVSNYVKDSVKLNDNQYGALASWAFNVGCGNVQTSSLIKRLNAGENPNTVAAQELPKWKYAGGKVMPGLVRRRNAEVALFKKPSSVQAHPPKC
modifications: mat_peptide (1)..(245)
[1]; 12.5 mg/kg
  Benefit over the NC diet: did not show any benefit
[1]; [6]
  FCR: 1.969
  FCR, Relative to C (%): 100.4%
  Feed intake: 1560 g/b
  Feed intake, Relative to C (%): 104.8%
  Weight gain: 795 g/b
  Weight gain, Relative to C (%): 104.4%
[1]; [7]
  FCR: 1.919
  FCR, Relative to C (%): 97.9%
  Feed intake: 1524 g/b
  Feed intake, Relative to C (%): 102.5%
  Weight gain: 800 g/b
  Weight gain, Relative to C (%): 105.1%
[1]; [8]
  FCR: 1.692
  FCR, Relative to C (%): 98.2%
  Feed intake: 2298 g/b
  Feed intake, Relative to C (%): 100.5%
  Weight gain: 1359 g/b
  Weight gain, Relative to C (%): 102.4%
[1]; [9]
  FCR: 1.714
  FCR, Relative to C (%): 99.5%
  Feed intake: 2336 g/b
  Feed intake, Relative to C (%): 102.2%
  Weight gain: 1364 g/b
  Weight gain, Relative to C (%): 102.7%
[1]; [10]
  FCR: 1.469
  FCR, Relative to C (%): 102.0%
  Feed intake: 1608 g/b
  Feed intake, Relative to C (%): 101.9%
  Weight gain: 1095 g/b
  Weight gain, Relative to C (%): 99.9%
[1]; [11]
  FCR: 1.414
  FCR, Relative to C (%): 98.1%
  Feed intake: 1603 g/b
  Feed intake, Relative to C (%): 101.6%
  Weight gain: 1133 g/b
  Weight gain, Relative to C (%): 103.4%
[1]; [12]
  EPEF: 408
  EPEF, Relative to C (%): 97.6%
  FCR: 1.683
  FCR, Relative to C (%): 100.2%
  Feed intake: 5466 g/b
  Feed intake, Relative to C (%): 102.1%
  Motality: 11.3
  Weight gain: 3249 g/b
  Weight gain, Relative to C (%): 102.0%
[1]; [13]
  EPEF: 425
  EPEF, Relative to C (%): 101.7%
  FCR: 1.657
  FCR, Relative to C (%): 98.6%
  Feed intake: 5450 g/b
  Feed intake, Relative to C (%): 101.9%
  Motality: 10.0
  Weight gain: 3290 g/b
  Weight gain, Relative to C (%): 103.3%
[1]; whole period, 25 mg/kg
  EPEF improvement compared to NC diet: 2.4%
  FCR improvement compared to NC diet: 1.2%
[2]
  Lysozyme activity as measured by Optical Density Drop: ++ (pH 6)
[3]
  Lysozyme activity as measured by Optical Density Drop: ++ (pH 6)
[4]; Experiment 1, 1/2 MHB pH 6
  Diameter of clearing zone: 11 mm
[4]; Experiment 1, 1/10 MHB pH 7
  Diameter of clearing zone: 9 mm
[4]; Experiment 2, 1/2 MHB pH 6
  Diameter of clearing zone: 10 mm
[4]; Experiment 2, 1/10 MHB pH 7
  Diameter of clearing zone: 8 mm
[4]; both conditions tested (1/10 MHB pH 7 and ½ MHB pH 6)
  Zones around the wells challenged with the enzyme: 8-11 mm
[5]; day 0-14, 50 ppm
  ADFI, % relative NC: 92.5%
  ADFI, Mean: 333 g/day
  ADWG, % relative NC: 91.4%
  ADWG, Mean: 265 g/day
  FCR, % relative NC: 102.6%
  FCR, Mean: 1.272^b
[5]; day 0-42, 50 ppm
  ADFI, % relative NC: 100.8%
  ADFI, Mean: 740^b g/d
  ADWG, % relative NC: 107.8%
  ADWG, Mean: 538 g/day
  EPEF, % relative NC: 115.3%
  EPEF, Mean: 391
  FCR, % relative NC: 92.9%
  FCR, Mean: 1.379^a
[5]; day 14-42, 50 ppm
  ADFI, % relative NC: 101.5%
  ADFI, Mean: 944^c g/d
  ADWG, % relative NC: 111.8%
  ADWG, Mean: 674 g/day
  FCR, % relative NC: 90.9%
  FCR, Mean: 1.404^a
[5]; overall period (day 0 to day 42), 50 mg/kg
  Improvement on FCR compared to the negative control: 7.1%
[5]; starter period, day 15 to day 42, 50 mg/kg
  Improvement to FCR compared to NC: 9.1%
[5]; starter period, 50 mg/kg
  Improvement of ADWG compared to the negative control diet: 11.8%
[5]; whole period, 50 mg/kg
  EPEF improvement compared to the negative control: 15.3%
  Improvement of ADWG compared to the negative control diet: 7.8%
